Data on 79 substances can be found in the Human Domainome abundance scans (Beltran et al. 2025).

± gives the uncertainty stated by the source.

This data set can be described thus: abundance fitness (aPCA) (normalised: wild type 0, dead -1); higher = more abundant; growth selection in yeast, the domain comes from the species named. The note with it: Homo sapiens.
Regarding “NEDD4-like E3 ubiquitin-protein ligase WWP2 G458S, O00308”, the abundance fitness was -0.176 ± 0.055. The result for “NEDD4-like E3 ubiquitin-protein ligase WWP2 G458T, O00308” reads -0.505 ± 0.058. With “NEDD4-like E3 ubiquitin-protein ligase WWP2 G458V, O00308”, the abundance fitness is -0.992 ± 0.065. Next, “NEDD4-like E3 ubiquitin-protein ligase WWP2 G458W, O00308”: -0.461 ± 0.045. In the case of “NEDD4-like E3 ubiquitin-protein ligase WWP2 G458Y, O00308”, the abundance fitness was -0.262 ± 0.064. On to “NEDD4-like E3 ubiquitin-protein ligase WWP2 G478A, O00308”, for which the abundance fitness was found to be 0.035 ± 0.058. In the case of “NEDD4-like E3 ubiquitin-protein ligase WWP2 G478C, O00308”, the abundance fitness was -0.001 ± 0.039. With “NEDD4-like E3 ubiquitin-protein ligase WWP2 G478D, O00308”, the abundance fitness was -0.036 ± 0.05.

Regarding “NEDD4-like E3 ubiquitin-protein ligase WWP2 G478E, O00308”, the abundance fitness is -0.036 ± 0.063. As for “NEDD4-like E3 ubiquitin-protein ligase WWP2 G478F, O00308”, the abundance fitness is -0.014 ± 0.046. Next, “NEDD4-like E3 ubiquitin-protein ligase WWP2 G478H, O00308”: -0.045 ± 0.069. Next, “NEDD4-like E3 ubiquitin-protein ligase WWP2 G478I, O00308”: 0.136 ± 0.073; “NEDD4-like E3 ubiquitin-protein ligase WWP2 G478K, O00308”: 0.061 ± 0.067; “NEDD4-like E3 ubiquitin-protein ligase WWP2 G478L, O00308”: 0.012 ± 0.035. In the case of “NEDD4-like E3 ubiquitin-protein ligase WWP2 G478M, O00308”, the abundance fitness was -0.08 ± 0.057. Take “NEDD4-like E3 ubiquitin-protein ligase WWP2 G478N, O00308”: the abundance fitness was -0.136 ± 0.068. The result for “NEDD4-like E3 ubiquitin-protein ligase WWP2 G478P, O00308” reads -0.005 ± 0.052.

As to “NEDD4-like E3 ubiquitin-protein ligase WWP2 G478Q, O00308”, the abundance fitness was found to be 0.038 ± 0.048. Next, “NEDD4-like E3 ubiquitin-protein ligase WWP2 G478R, O00308”: 0.032 ± 0.047; “NEDD4-like E3 ubiquitin-protein ligase WWP2 G478S, O00308”: 0.019 ± 0.033; “NEDD4-like E3 ubiquitin-protein ligase WWP2 G478T, O00308”: 0.077 ± 0.059. Next, “NEDD4-like E3 ubiquitin-protein ligase WWP2 G478V, O00308”: -0.058 ± 0.047; “NEDD4-like E3 ubiquitin-protein ligase WWP2 G478W, O00308”: -0.017 ± 0.032; “NEDD4-like E3 ubiquitin-protein ligase WWP2 G478Y, O00308”: -0.084 ± 0.068. For “NEDD4-like E3 ubiquitin-protein ligase WWP2 G482A, O00308”, the abundance fitness is -0.033 ± 0.042.

In the case of “NEDD4-like E3 ubiquitin-protein ligase WWP2 G482C, O00308”, the abundance fitness was -0.15 ± 0.062. For the substance “NEDD4-like E3 ubiquitin-protein ligase WWP2 G482E, O00308”, the abundance fitness was -0.064 ± 0.049. For “NEDD4-like E3 ubiquitin-protein ligase WWP2 G482F, O00308”, the abundance fitness was -0.124 ± 0.06. With “NEDD4-like E3 ubiquitin-protein ligase WWP2 G482H, O00308”, the abundance fitness was -0.019 ± 0.076.

“NEDD4-like E3 ubiquitin-protein ligase WWP2 G482I, O00308”: the abundance fitness is -0.077 ± 0.046. The result for “NEDD4-like E3 ubiquitin-protein ligase WWP2 G482K, O00308” reads -0.037 ± 0.068; that for “NEDD4-like E3 ubiquitin-protein ligase WWP2 G482L, O00308”, -0.086 ± 0.044; that for “NEDD4-like E3 ubiquitin-protein ligase WWP2 G482M, O00308”, -0.121 ± 0.061.

Turning to “NEDD4-like E3 ubiquitin-protein ligase WWP2 G482N, O00308”, the abundance fitness was -0.007 ± 0.039. Take “NEDD4-like E3 ubiquitin-protein ligase WWP2 G482P, O00308”: the abundance fitness was -0.032 ± 0.07.

Take “NEDD4-like E3 ubiquitin-protein ligase WWP2 G482Q, O00308”: the abundance fitness is -0.009 ± 0.057.

“NEDD4-like E3 ubiquitin-protein ligase WWP2 G482R, O00308”: the abundance fitness is -0.097 ± 0.043.

Regarding “NEDD4-like E3 ubiquitin-protein ligase WWP2 G482S, O00308”, the abundance fitness is -0.025 ± 0.033.

On to “NEDD4-like E3 ubiquitin-protein ligase WWP2 G482T, O00308”, for which the abundance fitness is -0.019 ± 0.06.

Regarding “NEDD4-like E3 ubiquitin-protein ligase WWP2 G482V, O00308”, the abundance fitness is -0.108 ± 0.043.

As to “NEDD4-like E3 ubiquitin-protein ligase WWP2 G482W, O00308”, the abundance fitness was -0.151 ± 0.05. Next, “NEDD4-like E3 ubiquitin-protein ligase WWP2 G482Y, O00308”: -0.089 ± 0.045; “NEDD4-like E3 ubiquitin-protein ligase WWP2 G486A, O00308”: 0.028 ± 0.038; “NEDD4-like E3 ubiquitin-protein ligase WWP2 G486C, O00308”: -0.023 ± 0.056.

On to “NEDD4-like E3 ubiquitin-protein ligase WWP2 G486E, O00308”, for which the abundance fitness came to 0.044 ± 0.042. The result for “NEDD4-like E3 ubiquitin-protein ligase WWP2 G486F, O00308” reads -0.205 ± 0.073; that for “NEDD4-like E3 ubiquitin-protein ligase WWP2 G486H, O00308”, -0.135 ± 0.062. For the substance “NEDD4-like E3 ubiquitin-protein ligase WWP2 G486I, O00308”, the abundance fitness is -0.028 ± 0.072. As for “NEDD4-like E3 ubiquitin-protein ligase WWP2 G486L, O00308”, the abundance fitness is -0.066 ± 0.042. The result for “NEDD4-like E3 ubiquitin-protein ligase WWP2 G486M, O00308” reads -0.01 ± 0.036. As for “NEDD4-like E3 ubiquitin-protein ligase WWP2 G486N, O00308”, the abundance fitness is -0.177 ± 0.12. “NEDD4-like E3 ubiquitin-protein ligase WWP2 G486P, O00308” came in with an abundance fitness of 0.013 ± 0.049. Regarding “NEDD4-like E3 ubiquitin-protein ligase WWP2 G486Q, O00308”, the abundance fitness is -0.023 ± 0.054. Consider “NEDD4-like E3 ubiquitin-protein ligase WWP2 G486R, O00308”, for which the abundance fitness is -0.028 ± 0.037. Consider “NEDD4-like E3 ubiquitin-protein ligase WWP2 G486S, O00308”, for which the abundance fitness is -0.041 ± 0.049. Consider “NEDD4-like E3 ubiquitin-protein ligase WWP2 G486V, O00308”, for which the abundance fitness is -0.01 ± 0.043. As for “NEDD4-like E3 ubiquitin-protein ligase WWP2 G486W, O00308”, the abundance fitness is -0.187 ± 0.049. Turning to “NEDD4-like E3 ubiquitin-protein ligase WWP2 G486Y, O00308”, the abundance fitness is -0.239 ± 0.069.

Consider “NEDD4-like E3 ubiquitin-protein ligase WWP2 G489A, O00308”, for which the abundance fitness is -0.007 ± 0.041.

Take “NEDD4-like E3 ubiquitin-protein ligase WWP2 G489C, O00308”: the abundance fitness was -0.066 ± 0.031.

As to “NEDD4-like E3 ubiquitin-protein ligase WWP2 G489D, O00308”, the abundance fitness is -0.02 ± 0.053. Next, “NEDD4-like E3 ubiquitin-protein ligase WWP2 G489E, O00308”: 0.04 ± 0.049; “NEDD4-like E3 ubiquitin-protein ligase WWP2 G489F, O00308”: -0.028 ± 0.078; “NEDD4-like E3 ubiquitin-protein ligase WWP2 G489H, O00308”: -0.155 ± 0.078. On to “NEDD4-like E3 ubiquitin-protein ligase WWP2 G489I, O00308”, for which the abundance fitness was -0.035 ± 0.078.

Turning to “NEDD4-like E3 ubiquitin-protein ligase WWP2 G489K, O00308”, the abundance fitness was determined as 0.001 ± 0.069. In the case of “NEDD4-like E3 ubiquitin-protein ligase WWP2 G489L, O00308”, the abundance fitness is -0.039 ± 0.055. The result for “NEDD4-like E3 ubiquitin-protein ligase WWP2 G489M, O00308” reads -0.048 ± 0.07; that for “NEDD4-like E3 ubiquitin-protein ligase WWP2 G489N, O00308”, -0.008 ± 0.033. Next, “NEDD4-like E3 ubiquitin-protein ligase WWP2 G489P, O00308”: -0.049 ± 0.041; “NEDD4-like E3 ubiquitin-protein ligase WWP2 G489Q, O00308”: -0.157 ± 0.077; “NEDD4-like E3 ubiquitin-protein ligase WWP2 G489R, O00308”: -0.035 ± 0.036. Regarding “NEDD4-like E3 ubiquitin-protein ligase WWP2 G489S, O00308”, the abundance fitness is 0.039 ± 0.05. Next, “NEDD4-like E3 ubiquitin-protein ligase WWP2 G489T, O00308”: 0.002 ± 0.066; “NEDD4-like E3 ubiquitin-protein ligase WWP2 G489V, O00308”: -0.031 ± 0.048.

Take “NEDD4-like E3 ubiquitin-protein ligase WWP2 G489W, O00308”: the abundance fitness was -0.163 ± 0.057. With “NEDD4-like E3 ubiquitin-protein ligase WWP2 G489Y, O00308”, the abundance fitness was -0.334 ± 0.087. “NEDD4-like E3 ubiquitin-protein ligase WWP2 H465A, O00308”: the abundance fitness is -0.378 ± 0.05. As to “NEDD4-like E3 ubiquitin-protein ligase WWP2 H465C, O00308”, the abundance fitness was -0.411 ± 0.067.
